Measured values reported in the supplement of paper PMC10126150.
± gives the standard deviation of the averaged measurements.

Tested on: ATP
Assay: switch fluorescence ratio, 500 uM ATP over buffer (Cy3 cluster intensity, sum of 5 cycles each) (fold (ratio)); higher = stronger signal-on switching upon ATP binding; sequences stand for … in TCGTCGGCAGCGTCAGATGTGTATAAGAGACAGTTTTTTTTTTTTTTTTTTTTTTTTT…TC
Settings: aptamer strand: ATP DNA aptamer (quencher-CACCTGGGGGAGTATTGCGGAGGAAGG + anchor), 100 nM annealed; ATP concentration: 500 uM
Method in brief: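 After annealing to 100 nM quencher-labelled ATP aptamer, Cy3-labelled switching-strand clusters on a modified Illumina MiSeq flow-cell were imaged in selection buffer. A second image followed after 15 min with 500 uM ATP at 22 °C, and five such buffer/ATP cycles were done, each separated by NaOH stripping and re-annealing. The fluorescence ratio, averaged per switch-domain sequence, is summed target-cycle over summed buffer-cycle Cy3 intensity per cluster, with clusters outside 100-1000 RFU excluded.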
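Note: ATP exposure 15 min at 22 °C before imaging.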

Row | Sequence | switch fluorescence ratio
1 | TGATATGTTT | 1.006 ± 0.002
2 | TGATATTCGA | 0.997 ± 0.012
3 | TGATATTTTG | 1 ± 0.016
4 | TGATCAAGTG | 0.99 ± 0.049
5 | TGATCGGATA | 1 ± 0.04
6 | TGATGATCC | 1.01 ± 0.042
7 | TGATGATGGG | 0.985 ± 0.038
8 | TGATGCAGTT | 1.01 ± 0.018
9 | TGATGCCGAA | 1.022 ± 0.0034
10 | TGATGCTGTA | 0.977 ± 0.063
11 | TGATGGACGG | 1 ± 0.022
12 | TGATGGAGGG | 0.997 ± 0.026
13 | TGATGGGAGC | 0.982 ± 0.014
14 | TGATGGGGG | 0.981 ± 0.016
15 | TGATGGGGTC | 0.991 ± 0.013
16 | TGATGTCTAG | 0.967 ± 0.021
17 | TGATGTTAGA | 1.003 ± 0.009
18 | TGATGTTTTT | 1.01 ± 0.024
19 | TGATTAATGA | 0.996 ± 0.034
20 | TGATTAATTT | 0.984 ± 0.011
21 | TGATTACTCA | 1.03 ± 0.021
22 | TGATTAGGGC | 1.01 ± 0.017
23 | TGATTATGGA | 0.995 ± 0.045
24 | TGATTATTTT | 0.991 ± 0.016
25 | TGATTCAGAG | 0.992 ± 0.029

Row | Sequence | switch fluorescence ratio
26 | TGATTCATGA | 0.925 ± 0.033
27 | TGATTCATTG | 1.034 ± 0.01
28 | TGATTCCGGT | 0.992 ± 0.013
29 | TGATTCGGCG | 1.03 ± 0.069
30 | TGATTCGTAC | 1.03 ± 0.028
31 | TGATTCTCTT | 1 ± 0.027
32 | TGATTCTGTG | 1.02 ± 0.03
33 | TGATTGAGAG | 1.016 ± 0.0025
34 | TGATTGGGGT | 1.01 ± 0.024
35 | TGATTGGTGG | 1.01 ± 0.041
36 | TGATTGGTTC | 0.9788 ± 0.0029
37 | TGATTGTACT | 1 ± 0.02
38 | TGATTGTTAT | 1.029 ± 0.0016
39 | TGATTTCATT | 1.02 ± 0.048
40 | TGATTTGGTT | 0.9903 ± 0.0083
41 | TGATTTTCGG | 0.974 ± 0.032
42 | TGATTTTTTT | 1.01 ± 0.031
43 | TGCAAAAAAT | 1.02 ± 0.011
44 | TGCAAAGAGC | 0.9824 ± 0.0073
45 | TGCAACGTAT | 1.13 ± 0.19
46 | TGCAAGGGAG | 1.0133 ± 0.00021
47 | TGCAATAGGG | 1.35 ± 0.12
48 | TGCAATATAT | 1.14 ± 0.01
49 | TGCAATGTTG | 1.04 ± 0.047
50 | TGCACAATCG | 1.01 ± 0.1

Row | Sequence | switch fluorescence ratio
51 | TGCACCGGGG | 1.02 ± 0.016
52 | TGCACGTTGC | 1.02 ± 0.03
53 | TGCAGAGGAA | 1.03 ± 0.018
54 | TGCAGCATCA | 1.11 ± 0.012
55 | TGCAGCTGGA | 0.977 ± 0.022
56 | TGCAGGAAAC | 1.05 ± 0.036
57 | TGCAGGAGGG | 0.972 ± 0.022
58 | TGCAGGATAT | 1.61 ± 0.57
59 | TGCAGGGACT | 1.005 ± 0.0081
60 | TGCAGGGATG | 0.986 ± 0.041
61 | TGCAGGGCGC | 1.04 ± 0.028
62 | TGCAGGGCGG | 0.9806 ± 0.0017
63 | TGCAGGGTGC | 1.04 ± 0.016
64 | TGCAGGTCTT | 1 ± 0.052
65 | TGCAGTAAGG | 0.97794 ± 0.00081
66 | TGCAGTAATA | 1.53 ± 0.13
67 | TGCATCATAA | 1.01 ± 0.024
68 | TGCATGTTGG | 0.9937 ± 0.0017
69 | TGCATTCATG | 0.996 ± 0.029
70 | TGCATTTAAT | 1.01 ± 0.027
71 | TGCATTTACT | 1.133 ± 0.0035
72 | TGCATTTGGA | 0.978 ± 0.015
73 | TGCATTTTTG | 1.06 ± 0.053
74 | TGCCAATATC | 1.7 ± 0.08
75 | TGCCAATATG | 1.06 ± 0.014

Row | Sequence | switch fluorescence ratio
76 | TGCCATGTTT | 0.966 ± 0.014
77 | TGCCCCGATA | 2.66 ± 2.3
78 | TGCCCGCCGT | 1.03 ± 0.067
79 | TGCCCTTTTT | 1.01 ± 0.095
80 | TGCCGATCAG | 0.993 ± 0.05
81 | TGCCGCAAAA | 1.82 ± 0.85
82 | TGCCGGGGGC | 1.04 ± 0.025
83 | TGCCGGGGTT | 1.1 ± 0.2
84 | TGCCGGTAAA | 1.01 ± 0.051
85 | TGCCTAACTT | 1.019 ± 0.0066
86 | TGCCTAAGAT | 1 ± 0.021
87 | TGCCTCTTTT | 0.9886 ± 0.006
88 | TGCCTTATGG | 0.983 ± 0.045
89 | TGCCTTATTT | 0.9999 ± 0.0049
90 | TGCCTTGCTT | 1.01 ± 0.023
91 | TGCCTTTTTT | 1 ± 0.016
92 | TGCGAAACTT | 1.07 ± 0.011
93 | TGCGAATTCG | 0.996 ± 0.037
94 | TGCGACCATT | 1.03 ± 0.04
95 | TGCGAGATTT | 1.01 ± 0.018
96 | TGCGAGGATG | 1 ± 0.0028
97 | TGCGAGGGGA | 1.01 ± 0.032
98 | TGCGAGGTCA | 1.03 ± 0.022
99 | TGCGATATTA | 1.02 ± 0.031
100 | TGCGATGGTC | 1.18 ± 0.065
